Measurements taken from US20230272056A1 (Merck Sharp & Dohme, published 2023).

Tests used:
[1] = target: human LAP-TGFβ1 expressed on P3U1 cells (human, UniProt P01137 30-390); assay: cell-based or functional assay
[2] = target: T1, human LAP-TGFB1 Fc fusion (human); assay: SPR pH 6.0, antigen captured on Fab 54BLH
T1 construct: also called human LAP-TGFβ1-Fc; human LAP-TGFβ-Fc isoform 1
Excerpt: A Series S C1 sensor chip (Cytiva, catalog BR100535) was immobilized with low densities of high affinity Fab 54BLH on a Biacore T200 instrument with 1×HBS-EP+(Teknova, catalog H8022). This surface served as a monovalent capture surface for a low-density layer of heterodimer human LAP-TGFβ1 complex leaving the second binding site exposed for monovalent kinetic binding analysis with both mAbs and Fabs. Immobilized flow cell 1 served as the reference and flow cells 2, 3 and 4 were used to evaluate the binding interaction between human LAP-TGFβ1 and yeast display mutant mAbs and Fabs.
Approximately 15-25 RU of human LAP-TGFβ1-Fc was captured to the Fab capture surface followed by injection of 1:3 serially diluted Fabs and mAbs from 6 nM to 0.07 nM (Fabs: 54BLH, 55BLH, 60BLH, 63BLH, 64BLH-mAbs: 69BLH, 70BLH) and 1:3 serially diluted Fab and mAbs from 60 nM to 0.74 nM (Fabs: 59BLH, 66BLH, 67BLH—mAbs: 74BLH, 75BLH, 78BLH, 79BLH, 81BLH, 82BLH) including 0 nM. The binding data was double referenced by subtraction of signal from a reference flow cell and the 0 nM injections for evaluation of Fabs and mAbs respectively. Binding rate constants were calculated/determined by fitting the data with a 1:1 binding model (Cytiva Biacore T200 Evaluation software 3.0).

[3] = target: T2, human LAP-TGFB3 Fc fusion (human); assay: SPR
T2 construct: also called human LAP-TGFβ3; LAP-TGFβ isoform 3
T2 sequence (chain, as listed by the source limits assumed): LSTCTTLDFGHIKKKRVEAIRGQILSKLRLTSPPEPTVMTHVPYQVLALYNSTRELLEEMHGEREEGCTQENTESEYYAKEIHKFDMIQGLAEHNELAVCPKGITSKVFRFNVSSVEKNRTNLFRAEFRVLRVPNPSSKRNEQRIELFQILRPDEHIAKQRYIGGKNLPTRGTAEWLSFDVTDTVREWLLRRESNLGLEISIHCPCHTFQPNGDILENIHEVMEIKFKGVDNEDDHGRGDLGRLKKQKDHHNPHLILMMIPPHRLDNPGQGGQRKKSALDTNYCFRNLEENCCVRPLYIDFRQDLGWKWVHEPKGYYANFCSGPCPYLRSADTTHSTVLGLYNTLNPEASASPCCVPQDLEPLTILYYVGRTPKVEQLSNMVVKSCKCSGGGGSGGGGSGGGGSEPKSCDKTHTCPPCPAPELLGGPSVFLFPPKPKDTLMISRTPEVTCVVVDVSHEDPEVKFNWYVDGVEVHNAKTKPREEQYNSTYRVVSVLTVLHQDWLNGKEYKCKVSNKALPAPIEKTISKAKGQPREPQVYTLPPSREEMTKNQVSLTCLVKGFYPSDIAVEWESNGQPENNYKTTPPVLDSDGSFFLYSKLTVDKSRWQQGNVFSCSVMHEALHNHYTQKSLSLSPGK
Excerpt: (§1) This Example describes the isoform specificity of the yeast display mutants to bind to human LAP-TGFβ isoforms 1, 2, and 3 using surface plasmon resonance. A Series S CM4 sensor chip (GE Healthcare, catalog BR100534) was immobilized with an anti-human Fc capture antibody following the kit protocol (GE Healthcare, catalog BR100839) on a Biacore T200 instrument with 1× HBS-EP+ (Teknova, catalog H8022). […] Binding specificity experiments between human LAP-TGFβ isoforms 2 and 3 and yeast display mutants were performed in 1× HBS-EP+ with 0.1 mg/mL BSA at 25° C. Approximately 20-40 RU amounts of human LAP-TGFβ2 and 3 were captured to the anti-human Fc surface followed by injection of 1000 nM Fab including a negative control 0 nM Fab. The binding data were double referenced by subtraction of signal from a reference (capture surface only) flow cell and the negative control 0 nM Fab injection. Binding rate constants were determined by fitting the data with a 1:1 binding model (GE Healthcare Biacore T200 Evaluation software 3.0).

[4] = target: T3, human LAP-TGFB2 Fc fusion (human); assay: SPR
T3 construct: also called human LAP-TGFβ2; LAP-TGFβ isoform 2
T3 sequence (chain, as listed by the source limits assumed): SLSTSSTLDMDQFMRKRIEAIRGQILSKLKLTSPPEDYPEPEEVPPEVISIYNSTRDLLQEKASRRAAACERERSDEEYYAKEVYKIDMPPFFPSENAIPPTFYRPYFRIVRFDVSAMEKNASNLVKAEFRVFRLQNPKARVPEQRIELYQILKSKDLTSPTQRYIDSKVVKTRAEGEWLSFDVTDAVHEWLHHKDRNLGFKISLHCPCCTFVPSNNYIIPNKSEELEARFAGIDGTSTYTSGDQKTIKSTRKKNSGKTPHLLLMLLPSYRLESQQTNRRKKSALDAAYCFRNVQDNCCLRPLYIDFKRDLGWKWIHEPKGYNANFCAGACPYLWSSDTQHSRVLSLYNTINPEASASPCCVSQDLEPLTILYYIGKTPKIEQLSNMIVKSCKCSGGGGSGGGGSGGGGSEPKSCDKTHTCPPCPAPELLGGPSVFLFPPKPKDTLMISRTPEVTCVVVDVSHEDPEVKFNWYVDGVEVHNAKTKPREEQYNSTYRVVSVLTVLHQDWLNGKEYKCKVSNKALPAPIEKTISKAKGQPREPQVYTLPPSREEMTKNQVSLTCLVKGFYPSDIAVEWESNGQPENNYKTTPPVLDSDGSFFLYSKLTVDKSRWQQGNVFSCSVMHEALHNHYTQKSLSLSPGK
Excerpt: as §1

[5] = target: T1, human LAP-TGFB1 Fc fusion; assay: SPR, antigen-Fc captured, Fab analyte
Excerpt: as §1

Sequence of human LAP-TGFβ1 expressed on P3U1 cells (P01137 30-390): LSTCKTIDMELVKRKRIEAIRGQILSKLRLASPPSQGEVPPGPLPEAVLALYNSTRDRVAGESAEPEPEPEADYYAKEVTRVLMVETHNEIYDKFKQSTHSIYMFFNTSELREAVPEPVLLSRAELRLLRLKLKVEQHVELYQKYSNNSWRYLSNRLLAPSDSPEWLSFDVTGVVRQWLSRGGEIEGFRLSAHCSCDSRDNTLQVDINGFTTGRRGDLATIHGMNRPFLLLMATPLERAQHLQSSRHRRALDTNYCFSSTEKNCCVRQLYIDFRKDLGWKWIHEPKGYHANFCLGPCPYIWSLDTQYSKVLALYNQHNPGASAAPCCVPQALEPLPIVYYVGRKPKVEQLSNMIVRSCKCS
T1 sequence (chain, as listed by the source limits assumed): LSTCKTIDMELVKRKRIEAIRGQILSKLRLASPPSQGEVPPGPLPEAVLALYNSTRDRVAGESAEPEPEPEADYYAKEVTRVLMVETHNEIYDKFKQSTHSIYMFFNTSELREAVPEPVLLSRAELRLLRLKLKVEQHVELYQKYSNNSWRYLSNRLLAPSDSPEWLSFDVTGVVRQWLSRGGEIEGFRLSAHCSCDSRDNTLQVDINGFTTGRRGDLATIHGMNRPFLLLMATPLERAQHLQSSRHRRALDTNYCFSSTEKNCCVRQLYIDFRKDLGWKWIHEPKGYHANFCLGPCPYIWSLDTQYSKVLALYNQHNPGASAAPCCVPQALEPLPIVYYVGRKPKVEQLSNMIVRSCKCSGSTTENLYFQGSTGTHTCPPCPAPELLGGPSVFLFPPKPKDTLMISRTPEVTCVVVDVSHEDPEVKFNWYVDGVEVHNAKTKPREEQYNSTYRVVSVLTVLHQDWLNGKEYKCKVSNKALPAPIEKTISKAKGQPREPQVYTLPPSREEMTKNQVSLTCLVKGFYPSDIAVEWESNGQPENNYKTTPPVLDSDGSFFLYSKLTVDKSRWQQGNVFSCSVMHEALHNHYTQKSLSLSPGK

| Average EC50 [1] [µg/mL] | ELISA assay 2 EC50 [1] [µg/mL] | ELISA assay #1 EC50 [1] [µg/mL] | Fab/mAb KD Ratio [2] | Kd [2] [nM] | koff [2] [s⁻¹] | kon [2] [M⁻¹ s⁻¹] | binding result [3] | binding result [4] | Fold improvement in KD [5] [fold] | Kd [5] [nM] | koff [5] [s⁻¹] | kon [5] [M⁻¹ s⁻¹] | Binder |
| --- | --- | --- | --- | --- | --- | --- | --- | --- | --- | --- | --- | --- | --- |
| 0.125 | 0.137 | 0.113 | 1.9 | 0.0114 | 6.18e-05 | 5.43e+06 |  |  |  |  |  |  | 06BLM (antibody, human IgG1, L234A L235A, V domains shown, IgG1 L234A L235A D265S/kappa; also called 69BLH; 42BMD) VH: EVQLVQSGAEVKKPGASVKVSCKASGYTFTSYDMHWVRQAPGQGLEWMGRIDPQSGGIRYAQKFQGRATLTVDTSTSTAYMELSRLRSDDTAVYYCARWDYGGQFDVWGQGTLVTVSS VL: DIQMTQSPSSLSASVGDRVTITCRASQDIYNYLNWYQQKPGKAVKLLIYYTSILETGVPSRFSGSGSGTDYTLTISSLQPEDFATYFCQQGDTLPWTFGQGTKLEIK |
| 0.033 | 0.008 | 0.0574 |  |  |  |  |  |  |  |  |  |  | 20BLM (antibody, human IgG1, kappa, L234A L235A, V domains shown) VH: EVQLVQSGAEVKKPGASVKVSCKASGYTFTSYDMHWVRQAPGQGLEWMGRIDPQSGGEKYAQKFQGRATLTVDTSTSTAYMELSRLRSDDTAVYYCARYDYGGYFDVWGQGTLVTVSS VL: DIQMTQSPSSLSASVGDRVTITCRASQDIYNYLNWYQQKPGKAVKLLIYYTSRLETGVPSRFSGSGSGTDYTLTISSLQPEDFATYFCQQGDTLPWTFGQGTKLEIKR |
|  |  |  |  |  |  |  | no binding (tested: 1000 nM Fab) | no binding (tested: 1000 nM Fab) | 1 | 175 | 0.279 | 1.59e+06 | 61BJN (Fab, V domains shown, also called VH S31D W33D G57D I58H K59D W99Y Y101H / VL T30Y (61BJN)) VH: EVQLVQSGAEVKKPGASVKVSCKASGYTFTDYDMHWVRQAPGQGLEWMGRIDPQSGDHDYAQKFQGRATLTVDTSTSTAYMELSRLRSDDTAVYYCARYDHGGYFDVWGQGTLVTVSS VL: DIQMTQSPSSLSASVGDRVTITCRASQDIYNYLNWYQQKPGKAVKLLIYYTSRLHSGVPSRFSGSGSGTDYTLTISSLQPEDFATYFCQQGDTLPWTFGQGTKLEIKR |
|  |  |  |  |  |  |  | no binding (tested: 1000 nM Fab) | no binding (tested: 1000 nM Fab) | 37 | 2.15 | 0.0077 | 3.57e+06 | 64BJN (Fab, V domains shown, also called VH S31T I58S / VL T30Y R53H (64BJN)) VH: EVQLVQSGAEVKKPGASVKVSCKASGYTFTTYWMHWVRQAPGQGLEWMGRIDPQSGGSKYAQKFQGRATLTVDTSTSTAYMELSRLRSDDTAVYYCARWDYGGYFDVWGQGTLVTVSS VL: DIQMTQSPSSLSASVGDRVTITCRASQDIYNYLNWYQQKPGKAVKLLIYYTSHLHSGVPSRFSGSGSGTDYTLTISSLQPEDFATYFCQQGDTLPWTFGQGTKLEIKR |
|  |  |  |  |  |  |  | no binding (tested: 1000 nM Fab) | no binding (tested: 1000 nM Fab) | 7 | 11.7 | 0.0263 | 2.24e+06 | 59BJN (Fab, V domains shown, also called VH W33Q M34V / VL T30Y (59BJN)) VH: EVQLVQSGAEVKKPGASVKVSCKASGYTFTSYQVHWVRQAPGQGLEWMGRIDPQSGGIKYAQKFQGRATLTVDTSTSTAYMELSRLRSDDTAVYYCARWDYGGYFDVWGQGTLVTVSS VL: DIQMTQSPSSLSASVGDRVTITCRASQDIYNYLNWYQQKPGKAVKLLIYYTSRLHSGVPSRFSGSGSGTDYTLTISSLQPEDFATYFCQQGDTLPWTFGQGTKLEIKR |
|  |  |  |  |  |  |  | no binding (tested: 1000 nM Fab) | no binding (tested: 1000 nM Fab) | 5 | 15.6 | 0.032 | 2.05e+06 | 62BJN (Fab, V domains shown, also called VH W33D Q54Y S55G W99Y Y101H / VL T30Y (62BJN)) VH: EVQLVQSGAEVKKPGASVKVSCKASGYTFTSYDMHWVRQAPGQGLEWMGRIDPYGGGIKYAQKFQGRATLTVDTSTSTAYMELSRLRSDDTAVYYCARYDHGGYFDVWGQGTLVTVSS VL: DIQMTQSPSSLSASVGDRVTITCRASQDIYNYLNWYQQKPGKAVKLLIYYTSRLHSGVPSRFSGSGSGTDYTLTISSLQPEDFATYFCQQGDTLPWTFGQGTKLEIKR |
|  |  |  |  |  |  |  | no binding (tested: 1000 nM Fab) | no binding (tested: 1000 nM Fab) | 3 |  |  |  | 55BJN (Fab, V domains shown, also called VH W33D M34I / VL (55BJN)) VH: EVQLVQSGAEVKKPGASVKVSCKASGYTFTSYDIHWVRQAPGQGLEWMGRIDPQSGGIKYAQKFQGRATLTVDTSTSTAYMELSRLRSDDTAVYYCARWDYGGYFDVWGQGTLVTVSS VL: DIQMTQSPSSLSASVGDRVTITCRASQDITNYLNWYQQKPGKAVKLLIYYTSRLHSGVPSRFSGSGSGTDYTLTISSLQPEDFATYFCQQGDTLPWTFGQGTKLEIKR |
|  |  |  |  |  |  |  | no binding (tested: 1000 nM Fab) | no binding (tested: 1000 nM Fab) | 31 | 2.57 | 0.00653 | 2.54e+06 | 60BJN (Fab, V domains shown, also called VH W33D I58E W99Y / VL T30Y (60BJN)) VH: EVQLVQSGAEVKKPGASVKVSCKASGYTFTSYDMHWVRQAPGQGLEWMGRIDPQSGGEKYAQKFQGRATLTVDTSTSTAYMELSRLRSDDTAVYYCARYDYGGYFDVWGQGTLVTVSS VL: DIQMTQSPSSLSASVGDRVTITCRASQDIYNYLNWYQQKPGKAVKLLIYYTSRLHSGVPSRFSGSGSGTDYTLTISSLQPEDFATYFCQQGDTLPWTFGQGTKLEIKR |
|  |  |  |  |  |  |  | no binding (tested: 1000 nM Fab) | no binding (tested: 1000 nM Fab) | 6 | 13.4 | 0.0178 | 1.33e+06 | 57BJN (Fab, V domains shown, also called VH W33D / VL (57BJN)) VH: EVQLVQSGAEVKKPGASVKVSCKASGYTFTSYDMHWVRQAPGQGLEWMGRIDPQSGGIKYAQKFQGRATLTVDTSTSTAYMELSRLRSDDTAVYYCARWDYGGYFDVWGQGTLVTVSS VL: DIQMTQSPSSLSASVGDRVTITCRASQDITNYLNWYQQKPGKAVKLLIYYTSRLHSGVPSRFSGSGSGTDYTLTISSLQPEDFATYFCQQGDTLPWTFGQGTKLEIKR |
|  |  |  |  |  |  |  | no binding (tested: 1000 nM Fab) | no binding (tested: 1000 nM Fab) | 1 |  |  |  | 56BJN (Fab, V domains shown, also called VH W33D M34I Q54Y / VL (56BJN)) VH: EVQLVQSGAEVKKPGASVKVSCKASGYTFTSYDIHWVRQAPGQGLEWMGRIDPYSGGIKYAQKFQGRATLTVDTSTSTAYMELSRLRSDDTAVYYCARWDYGGYFDVWGQGTLVTVSS VL: DIQMTQSPSSLSASVGDRVTITCRASQDITNYLNWYQQKPGKAVKLLIYYTSRLHSGVPSRFSGSGSGTDYTLTISSLQPEDFATYFCQQGDTLPWTFGQGTKLEIKR |
|  |  |  |  |  |  |  | no binding (tested: 1000 nM Fab) | no binding (tested: 1000 nM Fab) | 13 | 6.42 | 0.0151 | 2.35e+06 | 58BJN (Fab, V domains shown, also called VH W33D W99Y Y101H / VL T30Y (58BJN)) VH: EVQLVQSGAEVKKPGASVKVSCKASGYTFTSYDMHWVRQAPGQGLEWMGRIDPQSGGIKYAQKFQGRATLTVDTSTSTAYMELSRLRSDDTAVYYCARYDHGGYFDVWGQGTLVTVSS VL: DIQMTQSPSSLSASVGDRVTITCRASQDIYNYLNWYQQKPGKAVKLLIYYTSRLHSGVPSRFSGSGSGTDYTLTISSLQPEDFATYFCQQGDTLPWTFGQGTKLEIKR |
|  |  |  |  |  |  |  | no binding (tested: 1000 nM Fab) | no binding (tested: 1000 nM Fab) | 10 | 8.12 | 0.0238 | 2.94e+06 | 65BJN (Fab, V domains shown, also called VH W33D M34L W99Y Y101Q / VL T30Y N31Y (65BJN)) VH: EVQLVQSGAEVKKPGASVKVSCKASGYTFTSYDLHWVRQAPGQGLEWMGRIDPQSGGIKYAQKFQGRATLTVDTSTSTAYMELSRLRSDDTAVYYCARYDQGGYFDVWGQGTLVTVSS VL: DIQMTQSPSSLSASVGDRVTITCRASQDIYYYLNWYQQKPGKAVKLLIYYTSRLHSGVPSRFSGSGSGTDYTLTISSLQPEDFATYFCQQGDTLPWTFGQGTKLEIKR |
|  |  |  |  |  |  |  | no binding (tested: 1000 nM Fab) | no binding (tested: 1000 nM Fab) | 25 | 3.23 | 0.0053 | 1.64e+06 | 63BJN (Fab, V domains shown, also called VH S31F W33D M34I / VL T30Y (63BJN)) VH: EVQLVQSGAEVKKPGASVKVSCKASGYTFTFYDIHWVRQAPGQGLEWMGRIDPQSGGIKYAQKFQGRATLTVDTSTSTAYMELSRLRSDDTAVYYCARWDYGGYFDVWGQGTLVTVSS VL: DIQMTQSPSSLSASVGDRVTITCRASQDIYNYLNWYQQKPGKAVKLLIYYTSRLHSGVPSRFSGSGSGTDYTLTISSLQPEDFATYFCQQGDTLPWTFGQGTKLEIKR |
